Experimental data from patent US20040265295.

Experiments:
[1] = tested on: His-PIPKIγ661 C-terminus (439-661) Tyr644 to Phe mutant
[2] = tested on: His-PIPKIγ661 C-terminus (439-661) Tyr644/649 to Phe mutant
[3] = tested on: His-PIPKIγ661 C-terminus (439-661) Tyr649 to Phe mutant
[4] = tested on: His-PIPKIγ661 C-terminus, wild-type (439-661)
Sequence of His-PIPKIγ661 C-terminus, wild-type (439-661) (chain, as listed by the source): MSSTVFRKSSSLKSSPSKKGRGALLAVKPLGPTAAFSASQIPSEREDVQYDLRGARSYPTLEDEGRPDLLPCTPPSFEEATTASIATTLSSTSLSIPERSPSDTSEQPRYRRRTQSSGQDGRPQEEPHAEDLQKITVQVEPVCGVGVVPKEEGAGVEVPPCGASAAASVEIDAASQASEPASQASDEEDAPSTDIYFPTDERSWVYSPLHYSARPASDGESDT

Sequence of His-PIPKIγ661 C-terminus (439-661) Tyr644/649 to Phe mutant (chain, as listed by the source mutant): as the sequence (chain, as listed by the source) above, with Y206F, Y211F counted along it
Sequence of His-PIPKIγ661 C-terminus (439-661) Tyr649 to Phe mutant (chain, as listed by the source mutant): as the sequence (chain, as listed by the source) above, with Y211F counted along it
Sequence of His-PIPKIγ661 C-terminus (439-661) Tyr644 to Phe mutant (chain, as listed by the source mutant): as the sequence (chain, as listed by the source) above, with Y206F counted along it

c-SrcTyr527Phe
in vitro kinase assay, phosphorylation of the recombinant substrate [1]: not efficiently phosphorylated by c-Src in vitro compared with wild-type | in vitro kinase assay, phosphorylation of the recombinant substrate [2]: not efficiently phosphorylated by c-Src in vitro compared with wild-type | in vitro kinase assay, phosphorylation of the recombinant substrate [3]: PIPKIγTyr^649->Phe is efficiently phosphorylated by c-Src | in vitro kinase assay, phosphorylation of the recombinant substrate [4]: c-Src directly phosphorylated recombinant PIPKIγ661 tail
